The experiment concerns the target AP-DT/AA-LRRTM2 (UniProt O43300). The experiment is described as follows: immunostaining of cells or tissue; Nrxn-binding assay: live COS-7 cells expressing biotinylated AP-LRRTM2 (WT or mutants), BirA-ER and EGFP incubated 20 min with Nrxn solution (2 µg Nrxn-1β-Fc + 1.3 µg AlexaFluor647 anti-human Fc), then labelled with mSA-ATTO565 in Tyrode's solution (2 mM CaCl2, pH 7.4) and imaged live; Nrxn1β-Fc surface intensity normalised to AP-LRRTM2 expression.
Chain of UniProt O43300 (O43300 34-516 D259A/T261A): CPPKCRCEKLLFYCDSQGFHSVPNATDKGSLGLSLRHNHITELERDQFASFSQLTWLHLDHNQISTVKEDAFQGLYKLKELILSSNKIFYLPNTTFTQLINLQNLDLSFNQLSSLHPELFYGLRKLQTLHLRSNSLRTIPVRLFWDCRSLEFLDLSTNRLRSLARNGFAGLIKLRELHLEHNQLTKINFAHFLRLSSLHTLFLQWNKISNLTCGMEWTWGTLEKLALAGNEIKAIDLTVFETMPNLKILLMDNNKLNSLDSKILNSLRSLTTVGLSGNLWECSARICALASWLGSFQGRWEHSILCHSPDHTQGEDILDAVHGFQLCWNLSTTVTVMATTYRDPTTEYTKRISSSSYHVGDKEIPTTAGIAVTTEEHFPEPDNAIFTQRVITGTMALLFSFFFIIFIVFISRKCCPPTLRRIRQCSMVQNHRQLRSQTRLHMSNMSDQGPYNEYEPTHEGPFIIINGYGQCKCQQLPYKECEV

For the substance Nrxn1β-Fc (-SS4) (Fc fusion), the percent loss of Nrxn1β-Fc binding against AP-LRRTM2-WT was 50%.

The record behind these values is article PMC11470055.
